Earlier results in article PMC3034196.

Target: alkaline protease (Pseudomonas aeruginosa) (UniProt Q03023)
Sequence of UniProt Q03023 (Q03023 10-479): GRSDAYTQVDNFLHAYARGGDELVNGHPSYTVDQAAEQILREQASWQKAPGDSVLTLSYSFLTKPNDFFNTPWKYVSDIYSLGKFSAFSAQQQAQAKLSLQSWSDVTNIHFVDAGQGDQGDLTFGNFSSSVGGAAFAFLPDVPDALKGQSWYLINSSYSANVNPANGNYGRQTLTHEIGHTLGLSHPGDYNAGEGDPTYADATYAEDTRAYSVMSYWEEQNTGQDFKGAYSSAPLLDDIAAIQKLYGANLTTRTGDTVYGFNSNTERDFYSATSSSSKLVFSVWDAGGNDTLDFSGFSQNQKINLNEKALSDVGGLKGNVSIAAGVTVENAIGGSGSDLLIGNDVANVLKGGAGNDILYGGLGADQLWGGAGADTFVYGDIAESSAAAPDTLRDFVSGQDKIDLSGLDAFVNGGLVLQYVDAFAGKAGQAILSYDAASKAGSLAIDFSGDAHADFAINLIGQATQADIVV

Substance: APRin (alkaline protease inhibitor) (from UniProt Q03026)
- Kd: 4 pM
